Experimental findings from patent US20190144503A1 (REGENTS OF THE UNIVERSITY OF MINNESOTA, published 2019) are described below.

Like-named read-outs stand apart in the source and are kept apart here.

The target in test [1] is T1, recombinant His-tagged human carbonic anhydrase 9 (human, UniProt Q16790 38-414). In words: binding of the purified clone to CA9 (FIG. 14B); method not stated.
Test [2] deals with T1, recombinant His-tagged human carbonic …. In words: titration of the purified clone, Relative Binding to CA9 against concentration (x axis printed 'AAZ Concentration (nM)'); assay format not described.
The target is the same in test [3]. Described as above. This is another data set of the same source.

B1: Fn-AAZ clone 0.3.9 (fibronectin type III domain of SEQ ID NO: 4 conjugated to acetazolamide) (designed binder)
chain: MASSSDSPRNLEVTNATPNSLTISWDDSYCVIYYRITYGETGGNSPSQEFTVPGYTNSVTISGLKPGQDYTITVYAVTDYSKLDPSNPISINYRTEIDKPSQGS
modifications: acetazolamide (AAZ) conjugated through a maleimide-PEG linker to the single cysteine; PEG length not stated for this clone
notes: Expressed and purified clone, conjugated with maleimide-PEG-AAZ; also called second Fn-AAZ clone; second Fn-AAZ conjugate
As for B1, the “fold higher affinity than the Fn not conjugated to AAZ” value in test [1] was approximately 6 fold. In addition, the Kd in test [2] was approximately 30 nM.

B2: Clone 0.3.9 fibronectin type III domain (SEQ ID NO: 4) not conjugated to AAZ (designed binder)
chain: B1 chain
In the case of B2, the Kd in test [2] was determined as 170 nM.

B3: Fn-AAZ clone 0.3.10 (fibronectin type III domain of SEQ ID NO: 3 conjugated to acetazolamide) (designed binder)
chain: MASSSDSPRNLEVTNATPNSLTISWDSYLDCAYYYRITYGETGGNSPSQEFTVPGYTNSVTISGLKPGQDYTITVYAVASSNDVSNPISINYRTEIDKPSQGS
modifications: acetazolamide (AAZ) conjugated through a maleimide-PEG linker to the single cysteine; PEG length not stated for this clone
notes: Expressed and purified clone, conjugated with maleimide-PEG-AAZ; also called first Fn-AAZ clone; first Fn-AAZ conjugate
Take B3: the Kd in test [3] is 60 nM.

B4: Clone 0.3.10 fibronectin type III domain (SEQ ID NO: 3) not conjugated to AAZ (designed binder)
chain: B3 chain
As to B4, in test [3], the Kd was 600 nM.

The Kd is the constant that tells how readily two partners part at equilibrium.
